Data published in article PMC3991886, “Characterization of single-stranded DNA-binding proteins from the psychrophilic bacteria Desulfotalea psychrophila, Flavobacterium psychrophilum, Psychrobacter arcticus, Psychrobacter cryohalolentis, Psychromonas ingrahamii, Psychroflexus torquis, and Photobacterium profundum” (BMC Microbiology, 2014).

How the values were obtained:
Assay in all cases: fluorescence titration; 2-300 mM NaCl; site size 32 ± 2 nt; EMSA: 20 mM Tris-HCl pH 8.0, 100 mM NaCl, 1 mM EDTA, 25 C, 2% agarose in TAE; fluorescence titration: 20 mM Tris-HCl pH 8.0, 1 mM EDTA, 2/100/300 mM NaCl, 25 C
Conditions in all cases: protein: recombinant; tags: none (stop codon in reverse primer); chain copies: 4; label: none stated
PprSSB = biological target: T1, PprSSB (Photobacterium profundum (LMG 19446), UniProt Q6LM83 5-187)
T1 sequence: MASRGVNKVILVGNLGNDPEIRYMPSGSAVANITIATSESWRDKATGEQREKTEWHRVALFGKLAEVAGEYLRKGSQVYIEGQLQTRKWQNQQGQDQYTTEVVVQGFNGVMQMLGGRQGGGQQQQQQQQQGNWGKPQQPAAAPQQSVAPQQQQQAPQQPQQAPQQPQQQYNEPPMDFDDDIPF

PcrSSB = biological target: T2, PcrSSB (Psychrobacter cryohalolentis K5 (DSM …, UniProt Q1Q9B8 1-1+=G+2-219, internal_change))
T2 sequence: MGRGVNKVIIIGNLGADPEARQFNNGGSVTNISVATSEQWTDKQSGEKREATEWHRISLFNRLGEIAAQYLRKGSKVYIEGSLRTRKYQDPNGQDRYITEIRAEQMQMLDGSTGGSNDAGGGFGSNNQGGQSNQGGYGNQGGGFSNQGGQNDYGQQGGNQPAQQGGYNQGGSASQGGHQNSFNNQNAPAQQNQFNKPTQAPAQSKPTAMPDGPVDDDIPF

PtoSSB = biological target: T3, PtoSSB (Psychroflexus torquis ATCC 700755 (LMG …, UniProt K4IS14 1-151))
T3 sequence: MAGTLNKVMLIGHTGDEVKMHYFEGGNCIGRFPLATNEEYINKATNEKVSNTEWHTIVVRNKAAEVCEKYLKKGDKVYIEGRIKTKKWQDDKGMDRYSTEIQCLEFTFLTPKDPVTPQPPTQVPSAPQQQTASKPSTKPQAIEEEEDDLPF

B1: (dT)76 (ssDNA)
DNA: TTTTTTTTTTTTTTTTTTTTTTTTTTTTTTTTTTTTTTTTTTTTTTTTTTTTTTTTTTTTTTTTTTTTTTTTTTTT
- binding signal (PprSSB): 90 ± 3 % Trp fluorescence quench at saturation
- binding signal (PcrSSB): 93 ± 3 % Trp fluorescence quench at saturation
- binding signal (PtoSSB): 93 ± 3 % Trp fluorescence quench at saturation
